Measurements published in the supplement of paper PMC10567573.

B1: PTPRD (parent)
chain: PVVSMDLDPQPITDEEEGLIWVVG
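Note: lentivirally expressed fusions sorted by FACS into six bins by GFP to DsRed ratio, PSI derived from sequencing read proportions per bin multiplied by bin number.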

Variants of: B1
Assay: protein stability index of a GFP-peptide fusion (GPS, HEK-293T) (PSI 1-6); higher = more stable
Details: c terminus: a fixed tail appended
In the case of WVVSMDLDPQPITDEEEGLIWVVG [P1W], the protein stability index is reported as 2.17. With YVVSMDLDPQPITDEEEGLIWVVG [P1Y] the protein stability index was 1.52. PVVSMDLDGQPITDEEEGLIWVVG [P9G] showed a protein stability index of 4.54. PVVSMDLDFQPITDEEEGLIWVVG [P9F] gave a protein stability index of 1.93. With PVVSMDLDCQPITDEEEGLIWVVG [P9C] the protein stability index was 3.67. In the case of PVVSMDLDKQPITDEEEGLIWVVG [P9K], the protein stability index is reported as 3.71. PVVSMDLDIQPITDEEEGLIWVVG [P9I] gave a protein stability index of 3.23. Work on PVVSMDLDNQPITDEEEGLIWVVG [P9N] yielded a protein stability index of 4.12. For PVVSMDLDVQPITDEEEGLIWVVG [P9V], the protein stability index was 3.19. PVVSMDLDQQPITDEEEGLIWVVG [P9Q] showed a protein stability index of 4.05. PVVSMDLDDQPITDEEEGLIWVVG [P9D] showed a protein stability index of 4.52. PVVSMDLDAQPITDEEEGLIWVVG [P9A] gave a protein stability index of 2.88. For PVVSMDLDTQPITDEEEGLIWVVG [P9T], the protein stability index was 4.18. For PVVSMDLDRQPITDEEEGLIWVVG [P9R], the protein stability index was 3.58. For PVVSMDLDYQPITDEEEGLIWVVG [P9Y], the protein stability index was 3.41. With PVVSMDLDWQPITDEEEGLIWVVG [P9W] the protein stability index was 2.96. Variant PVVSMDLDPQPGTDEEEGLIWVVG [I12G] has a protein stability index of 4.49. For PVVSMDLDPQPRTDEEEGLIWVVG [I12R], the protein stability index was 4.74. PVVSMDLDPQPMTDEEEGLIWVVG [I12M] gave a protein stability index of 3.75. Variant PVVSMDLDPQPKTDEEEGLIWVVG [I12K] has a protein stability index of 4.84. Work on PVVSMDLDPQPYTDEEEGLIWVVG [I12Y] yielded a protein stability index of 2.86. PVVSMDLDPQPSTDEEEGLIWVVG [I12S] gave a protein stability index of 3.64. Work on PVVSMDLDPQPDTDEEEGLIWVVG [I12D] yielded a protein stability index of 4.52. In the case of PVVSMDLDPQPNTDEEEGLIWVVG [I12N], the protein stability index is reported as 4.28. Work on PVVSMDLDPQPFTDEEEGLIWVVG [I12F] yielded a protein stability index of 2.78. Variant PVVSMDLDPQPHTDEEEGLIWVVG [I12H] has a protein stability index of 4.07. Variant PVVSMDLDPQPVTDEEEGLIWVVG [I12V] has a protein stability index of 4.28. PVVSMDLDPQPLTDEEEGLIWVVG [I12L] gave a protein stability index of 3.95. For PVVSMDLDPQPETDEEEGLIWVVG [I12E], the protein stability index was 4.94. PVVSMDLDPQPCTDEEEGLIWVVG [I12C] gave a protein stability index of 3.66. PVVSMDLYPQPITDEEEGLIWVVG [D8Y] showed a protein stability index of 2.74. Work on PVVSMDLWPQPITDEEEGLIWVVG [D8W] yielded a protein stability index of 2.52. PVVSMDLIPQPITDEEEGLIWVVG [D8I] gave a protein stability index of 2.53. Variant PVVSMDLMPQPITDEEEGLIWVVG [D8M] has a protein stability index of 3.29. Variant PVVSMDLPPQPITDEEEGLIWVVG [D8P] has a protein stability index of 3.56. Variant PVVSMDLVPQPITDEEEGLIWVVG [D8V] has a protein stability index of 3.25. PVVSMDLNPQPITDEEEGLIWVVG [D8N] gave a protein stability index of 3.55. For PVVSMDLLPQPITDEEEGLIWVVG [D8L], the protein stability index was 3.31. With PVVSMDLEPQPITDEEEGLIWVVG [D8E] the protein stability index was 3.92. Variant PVVSMDLHPQPITDEEEGLIWVVG [D8H] has a protein stability index of 2.1. PVVSMDLGPQPITDEEEGLIWVVG [D8G] showed a protein stability index of 3.8. For PVVSMDLTPQPITDEEEGLIWVVG [D8T], the protein stability index was 3.61. With PVVSMDLCPQPITDEEEGLIWVVG [D8C] the protein stability index was 2.61. With PVVSMDLAPQPITDEEEGLIWVVG [D8A] the protein stability index was 3.73. In the case of PTVSMDLDPQPITDEEEGLIWVVG [V2T], the protein stability index is reported as 4.09. PLVSMDLDPQPITDEEEGLIWVVG [V2L] gave a protein stability index of 3.93. PRVSMDLDPQPITDEEEGLIWVVG [V2R] showed a protein stability index of 4.6. Variant PPVSMDLDPQPITDEEEGLIWVVG [V2P] has a protein stability index of 4.05. In the case of PEVSMDLDPQPITDEEEGLIWVVG [V2E], the protein stability index is reported as 4.23. PDVSMDLDPQPITDEEEGLIWVVG [V2D] showed a protein stability index of 3.95. For PQVSMDLDPQPITDEEEGLIWVVG [V2Q], the protein stability index was 3.94. PKVSMDLDPQPITDEEEGLIWVVG [V2K] showed a protein stability index of 2.77. PIVSMDLDPQPITDEEEGLIWVVG [V2I] showed a protein stability index of 3.05. Work on PSVSMDLDPQPITDEEEGLIWVVG [V2S] yielded a protein stability index of 4.51. PMVSMDLDPQPITDEEEGLIWVVG [V2M] showed a protein stability index of 4.2. Work on PAVSMDLDPQPITDEEEGLIWVVG [V2A] yielded a protein stability index of 4.31. PCVSMDLDPQPITDEEEGLIWVVG [V2C] gave a protein stability index of 4.26. Variant PFVSMDLDPQPITDEEEGLIWVVG [V2F] has a protein stability index of 3.16. For PYVSMDLDPQPITDEEEGLIWVVG [V2Y], the protein stability index was 3.56. PGVSMDLDPQPITDEEEGLIWVVG [V2G] showed a protein stability index of 4.23. Work on PNVSMDLDPQPITDEEEGLIWVVG [V2N] yielded a protein stability index of 3.84. For PHVSMDLDPQPITDEEEGLIWVVG [V2H], the protein stability index was 3.67. PVVSMDFDPQPITDEEEGLIWVVG [L7F] showed a protein stability index of 4.79. PVVSMDVDPQPITDEEEGLIWVVG [L7V] showed a protein stability index of 4.01. With PVVSMDGDPQPITDEEEGLIWVVG [L7G] the protein stability index was 4.87. For PVVSMDCDPQPITDEEEGLIWVVG [L7C], the protein stability index was 3.54. In the case of PVVSMDMDPQPITDEEEGLIWVVG [L7M], the protein stability index is reported as 3.29. Variant PVVSMDSDPQPITDEEEGLIWVVG [L7S] has a protein stability index of 4.33. Work on PVVSMDADPQPITDEEEGLIWVVG [L7A] yielded a protein stability index of 4.31. In the case of PVVSMDRDPQPITDEEEGLIWVVG [L7R], the protein stability index is reported as 4.4. For PVVSMDTDPQPITDEEEGLIWVVG [L7T], the protein stability index was 2.63. Variant PVVSMDIDPQPITDEEEGLIWVVG [L7I] has a protein stability index of 3.94. In the case of PVVSMDNDPQPITDEEEGLIWVVG [L7N], the protein stability index is reported as 4.74. In the case of PVVSMDEDPQPITDEEEGLIWVVG [L7E], the protein stability index is reported as 4.89. Work on PVVSMDPDPQPITDEEEGLIWVVG [L7P] yielded a protein stability index of 3.4. In the case of PVVSMDHDPQPITDEEEGLIWVVG [L7H], the protein stability index is reported as 3.48. Variant PVVSMDYDPQPITDEEEGLIWVVG [L7Y] has a protein stability index of 4.27. In the case of PVVSMDWDPQPITDEEEGLIWVVG [L7W], the protein stability index is reported as 3.52. Variant PVVSSDLDPQPITDEEEGLIWVVG [M5S] has a protein stability index of 3.77. For PVVSNDLDPQPITDEEEGLIWVVG [M5N], the protein stability index was 4.7. In the case of PVVSLDLDPQPITDEEEGLIWVVG [M5L], the protein stability index is reported as 3.97. Work on PVVSYDLDPQPITDEEEGLIWVVG [M5Y] yielded a protein stability index of 3.54. Work on PVVSGDLDPQPITDEEEGLIWVVG [M5G] yielded a protein stability index of 5.16. In the case of PVVSCDLDPQPITDEEEGLIWVVG [M5C], the protein stability index is reported as 4.64. For PVVSTDLDPQPITDEEEGLIWVVG [M5T], the protein stability index was 4.01. With PVVSVDLDPQPITDEEEGLIWVVG [M5V] the protein stability index was 3.92. PVVSADLDPQPITDEEEGLIWVVG [M5A] showed a protein stability index of 4.97. With PVVSDDLDPQPITDEEEGLIWVVG [M5D] the protein stability index was 4.71. Work on PVVSWDLDPQPITDEEEGLIWVVG [M5W] yielded a protein stability index of 3.51. Variant PVVSQDLDPQPITDEEEGLIWVVG [M5Q] has a protein stability index of 4.62. For PVVSFDLDPQPITDEEEGLIWVVG [M5F], the protein stability index was 3.48. With PVVSKDLDPQPITDEEEGLIWVVG [M5K] the protein stability index was 4.64. PVVSRDLDPQPITDEEEGLIWVVG [M5R] gave a protein stability index of 4.31. PVVSHDLDPQPITDEEEGLIWVVG [M5H] showed a protein stability index of 4.66.
